Measurements from patent publication US20250276077A1 (IMMUNOME, published 2025).

Molecular target: Human EphA2 (ephrin receptor A2) on cells (human, UniProt P29317 25-976)
Experiment: cell-based or functional assay

Chain of Human EphA2 (ephrin receptor A2) on cells (P29317 25-976): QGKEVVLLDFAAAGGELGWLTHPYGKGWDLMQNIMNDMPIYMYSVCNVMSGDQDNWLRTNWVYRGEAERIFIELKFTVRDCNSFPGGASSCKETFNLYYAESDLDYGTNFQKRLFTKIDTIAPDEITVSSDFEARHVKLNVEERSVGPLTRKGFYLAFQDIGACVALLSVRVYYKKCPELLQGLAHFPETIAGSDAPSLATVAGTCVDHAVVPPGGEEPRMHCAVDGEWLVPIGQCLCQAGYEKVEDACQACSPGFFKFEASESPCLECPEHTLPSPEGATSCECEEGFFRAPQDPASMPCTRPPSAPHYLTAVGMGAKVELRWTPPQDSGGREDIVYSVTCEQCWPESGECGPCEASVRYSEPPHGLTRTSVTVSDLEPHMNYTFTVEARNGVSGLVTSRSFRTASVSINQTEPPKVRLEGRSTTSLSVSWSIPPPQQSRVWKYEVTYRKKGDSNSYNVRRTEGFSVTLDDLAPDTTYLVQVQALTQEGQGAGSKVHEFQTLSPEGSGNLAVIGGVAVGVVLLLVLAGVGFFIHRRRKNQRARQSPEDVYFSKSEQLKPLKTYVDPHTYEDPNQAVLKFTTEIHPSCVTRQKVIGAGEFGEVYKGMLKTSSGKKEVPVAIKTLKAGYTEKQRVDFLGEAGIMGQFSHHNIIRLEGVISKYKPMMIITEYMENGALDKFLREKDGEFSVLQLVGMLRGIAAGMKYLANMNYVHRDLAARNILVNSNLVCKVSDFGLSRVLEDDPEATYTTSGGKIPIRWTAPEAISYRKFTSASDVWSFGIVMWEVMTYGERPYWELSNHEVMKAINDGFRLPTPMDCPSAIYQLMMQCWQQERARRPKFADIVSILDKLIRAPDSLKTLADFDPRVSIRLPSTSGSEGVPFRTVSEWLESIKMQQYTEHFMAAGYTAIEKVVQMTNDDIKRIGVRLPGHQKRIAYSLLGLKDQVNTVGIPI

ADCC - EC50 (nM), Trial 1, A549	ADCC - EC50 (nM), Trial 2, A549	Binder
12.4 nM		AB-010672 (antibody, V domains shown) VH: QVQLQQWGAGLLKPSETLSLTCAVYGGSFSDYYWSWIRQPPGKGLEWIGEINHRGSINYNNYNPSLKSRVTISVDTSKNQFSLKLSSVTAADTAVYYCAKPLRPHCTNGVCYSGDAFDIWGQGTMVTVAS VL: SYVLTQPPSVSVAPGQTARITCGGNNIGSKNVHWYQQKPGQAPVLVVYDDSDRPSGIPEQFSGSNSGNTATLTISRVEAGDEADYYCQVWDSRSDHVVFGGGTKLTVL
~0.14 nM	0.046 nM	AB-010683 (antibody, V domains shown) VH: QVQLQQWGAGLLKPSETLSLTCAVYGGSFSGYYWSWIRQPPGKGLEWIGEINHRGSINYNNYNPSLKSRVTISVDTSKNQFSLKLSSVTAADTAVYYCAKPLRPHCTNGVCYSGDAFDIWGQGTMVTVAS VL: SYVLTQPPSVSVAPGQTARITCGGNNIGSMNVHWYQQKPGQAPVLVVYDDSDRPSGIPEQFSGSNSGNTATLTISRVEAGDEADYYCQVWDHSSDHVVFGGGTKLTVL
~0.1 nM	0.039 nM	AB-010676 (antibody, V domains shown) VH: QVQLQQWGAGLLKPSETLSLTCAVYGGSFSGYYWSWIRQPPGKGLEWIGEINHRGSINYNNYNPSLKSRVTISVDTSKNQFSLKLSSVTAADTAVYYCAKPLRPHCTNGVCYSGDAFDIWGQGTMVTVAS VL: SYVLTQPPSVSVAPGQTARITCRGNNIGYKNVHWYQQKPGQAPVLVVYDDSDRPSGIPEQFSGSNSGNTATLTISRVEAGDEADYYCQVWDSSSDHVVFGGGTKLTVL
3.2 nM		AB-010682 (antibody, V domains shown) VH: QVQLQQWGAGLLKPSETLSLTCAVYGGSFSGYYWSWIRQPPGKGLEWIGEINHRGSINYNNYNPSLKSRVTISVDTSKNQFSLKLSSVTAADTAVYYCAKPLRPHCINGVCYSGDAFDIWGQGTMVTVAS VL: SYVLTQPPSVSVAPGQTARITCGGNNIGSMNVHWYQQKPGQAPVLVVYDDSDRPSGIPEQFSGSNSGNTATLTISRVEAGDEADYYCQVWDSSSDHVVFGGGTKLTVL
< 0.03 nM	0.0057 nM	AB-010685 (antibody, V domains shown) VH: QVQLQQWGAGLLKPSETLSLTCAVYGGSFSGYYWSWIRQPPGKGLEWIGEINHRGSINYNNYNPSLKSRVTISVDTSKNQFSLKLSSVTAADTAVYYCAKPLRPHCINGVCYSGDAFDIWGQGTMVTVAS VL: SYVLTQPPSVSVAPGQTARITCGGNNIGYKNVHWYQQKPGQAPVLVVYDDSDRPSGIPEQFSGSNSGNTATLTISRVEAGDEADYYCQVWDHSSDHVVFGGGTKLTVL
< 0.03 nM	0.0079 nM	AB-010681 (antibody, V domains shown) VH: QVQLQQWGAGLLKPSETLSLTCAVYGGSFSGYYWSWIRQPPGKGLEWIGEINHRGSINYNNYNPSLKSRVTISVDTSKNQFSLKLSSVTAADTAVYYCAKPLRPHCTNGVCYSGDAFDIWGQGTMVTVAS VL: SYVLTQPPSVSVAPGQTARITCGGNNIGYKNVHWYQQKPGQAPVLVVYDDSDRPSGIPEQFSGSNSGNTATLTISRVEAGDEADYYCQVWDHSSDHVVFGGGTKLTVL
~0.15 nM	0.04 nM	AB-010679 (antibody, V domains shown) VH: QVQLQQWGAGLLKPSETLSLTCAVYGGSFSGYYWSWIRQPPGKGLEWIGEINHRGSINYNNYNPSLKSRVTISVDTSKNQFSLKLSSVTAADTAVYYCAKPLRPHCINGVCYSGDAFDIWGQGTMVTVAS VL: SYVLTQPPSVSVAPGQTARITCGGNNIGYKNVHWYQQKPGQAPVLVVYDDSDRPSGIPEQFSGSNSGNTATLTISRVEAGDEADYYCQVWDSSSDHVVFGGGTKLTVL
~0.14 nM	0.047 nM	AB-010678 (antibody, V domains shown) VH: QVQLQQWGAGLLKPSETLSLTCAVYGGSFSGYYWSWIRQPPGKGLEWIGEINHRGSINYNNYNPSLKSRVTISVDTSKNQFSLKLSSVTAADTAVYYCAKPLRPHCTNGVCYSGDAFDIWGQGTMVTVAS VL: SYVLTQPPSVSVAPGQTARITCRGNNIGSKNVHWYQQKPGQAPVLVVYDDSDRPSGIPEQFSGSNSGNTATLTISRVEAGDEADYYCQVWDHSSDHVVFGGGTKLTVL
1.5 nM		AB-010675 (antibody, V domains shown) VH: QVQLQQWGAGLLKPSETLSLTCAVYGGSFSGYYWSWIRQPPGKGLEWIGEINHRGSINYNNYNPSLKSRVTISVDTSKNQFSLKLSSVTAADTAVYYCAKPLRPHCINGVCYSGDAFDIWGQGTMVTVAS VL: SYVLTQPPSVSVAPGQTARITCRGNNIGSKNVHWYQQKPGQAPVLVVYDDSDRPSGIPEQFSGSNSGNTATLTISRVEAGDEADYYCQVWDSSSDHVVFGGGTKLTVL
3.9 nM		AB-010673 (antibody, V domains shown) VH: QVQLQQWGAGLLKPSETLSLTCAVYGGSFSDYYWSWIRQPPGKGLEWIGEINHRGSINYNNYNPSLKSRVTISVDTSKNQFSLKLSSVTAADTAVYYCAKPLRPHCTNGVCYSGDAFDIWGQGTMVTVAS VL: SYVLTQPPSVSVAPGQTARITCGGNNIGSKNVHWYQQKPGQAPVLVVYDDSDRPSGIPEQFSGSNSGNTATLTISRVEAGDEADYYCQVWDSESDHVVFGGGTKLTVL
1.6 nM		AB-010677 (antibody, V domains shown) VH: QVQLQQWGAGLLKPSETLSLTCAVYGGSFSGYYWSWIRQPPGKGLEWIGEINHRGSINYNNYNPSLKSRVTISVDTSKNQFSLKLSSVTAADTAVYYCAKPLRPHCTNGVCYSGDAFDIWGQGTMVTVAS VL: SYVLTQPPSVSVAPGQTARITCRGNNIGSMNVHWYQQKPGQAPVLVVYDDSDRPSGIPEQFSGSNSGNTATLTISRVEAGDEADYYCQVWDSSSDHVVFGGGTKLTVL
~0.14 nM	0.048 nM	AB-010684 (antibody, V domains shown) VH: QVQLQQWGAGLLKPSETLSLTCAVYGGSFSGYYWSWIRQPPGKGLEWIGEINHRGSINYNNYNPSLKSRVTISVDTSKNQFSLKLSSVTAADTAVYYCAKPLRPHCINGVCYSGDAFDIWGQGTMVTVAS VL: SYVLTQPPSVSVAPGQTARITCGGNNIGSKNVHWYQQKPGQAPVLVVYDDSDRPSGIPEQFSGSNSGNTATLTISRVEAGDEADYYCQVWDHSSDHVVFGGGTKLTVL
~0.13 nM	0.1 nM	AB-010674 (antibody, V domains shown) VH: QVQLQQWGAGLLKPSETLSLTCAVYGGSFSDYYWSWIRQPPGKGLEWIGEINHRGSINYNNYNPSLKSRVTISVDTSKNQFSLKLSSVTAADTAVYYCAKPLRPHCTNGVCYSGDAFDIWGQGTMVTVAS VL: SYVLTQPPSVSVAPGQTARITCGGNNIGYKNVHWYQQKPGQAPVLVVYDDSDRPSGIPEQFSGSNSGNTATLTISRVEAGDEADYYCQVWDSESDHVVFGGGTKLTVL
~0.081 nM	0.031 nM	AB-010680 (antibody, V domains shown) VH: QVQLQQWGAGLLKPSETLSLTCAVYGGSFSGYYWSWIRQPPGKGLEWIGEINHRGSINYNNYNPSLKSRVTISVDTSKNQFSLKLSSVTAADTAVYYCAKPLRPHCTNGVCYSGDAFDIWGQGTMVTVAS VL: SYVLTQPPSVSVAPGQTARITCGGNNIGYMNVHWYQQKPGQAPVLVVYDDSDRPSGIPEQFSGSNSGNTATLTISRVEAGDEADYYCQVWDSSSDHVVFGGGTKLTVL
